Experimental data: the nanobody polyreactivity screen of Harvey et al. (2022)

Experiment: yeast display, Sf9 membrane polyspecificity reagent, FACS + sequencing; frameworks hold sequencing errors
Procedure, shortened: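 Galactose induction of a Saccharomyces cerevisiae BJ5465 synthetic nanobody display library ran 36–48 hours. The cells were then stained for 1 hour at 4 °C with 10% biotinylated, detergent-solubilized Sf9 membrane reagent, pulled down on streptavidin microbeads and FACS-sorted into low and high (top ~1%) gates on expression and reagent-binding fluorescence. Labels for polyreactivity follow the gate of origin.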

Sequence	polyreactivity (PSR sort gate)
QVQLVESGGGLVQAGGSLRLSSAPSGRTFGVYAMGWYRQAPGKERELVAAISATGGSTYYADSVKGRFTISRDNAKNTVYLQMNSLKPEDTAVYYCARGGTTLYWGQGTQVTVSS	high polyreactivity
QVQLVESGGGLVQAGGSLRLSCAASGGTFEYNAMGWYRQAPGKERELVAAISKSGGRTYFADSVKGRFTISRDNAMNTVYLQMNSLKPEDTAVYYCAKRYVWGQGTQVTVSS	high polyreactivity
QVQLVESGGGLVQAGGILRLSCAASGFTLADNTMVWYRQSPGKERELVADITSGASTYYADSVKGRFTISRDNAKNTVYLQMNSLKPEDTAVYYCAALYYWRSGYDYWGQGTQVTVSS	low polyreactivity
QVQLVESGGGLVQAGGSLRLSCAASGRIFFVNAMGWYRQAPGKERELVAAISWSGGNTNYADSVKGRFTISRDNAKNTVYLQMNSLKPEDTAVYYCAADNSVGEYQRVDYDYWGQGTQVSVSS	low polyreactivity
QVQLVESGGGLVQAGGSLRLSSAASGSTFQFYAMGWYRQAPGKERELVADITSGDDTNYADSVKGRFTISRDNAKNTVYLQMNSLKPEDTAVYYCAVEYILFYTRVRSYWFDYWGQGTQVTVSS	low polyreactivity
QVQLVESGGGLVQAGGSLRLSCAASGRTFKKYAMGWYRQAPGKERELVAAITGSGGSTYYADSVKGRFTISRDNAKNTVYLQMNSLKPEDTAVYYCAAYAYGVWHSQDGGNYWGQGTLVTVSS	low polyreactivity
QVQLVESGGGLVQAGGSLRLSCAASGTIFASYAMGWYRQAPGKERELVAAISDGGGRTYYADSVKGRFTISRDNAKNTVYLQMNSLKPEDTAVYYCAAYAVYTYRRARGYWGQGTQVTVSS	high polyreactivity
QVQLVESGGGLVQAGGSLRLSCAASGRIFYNYAMGWSRQAPGKERELVAANSGSGGSTYYADSVKGRFTISRDSAMNTVYFQMNSLKPEDTAVYYCSTSGPQYYSRNFDYWGQGTQVTVSS	low polyreactivity
QDQLVESGGGLVQAGGSLRLSCAASGSTFKYYGMGWYRQAPGKERELVAAITSGGSTYDADSVKGRFTISRDNAKNTVYLQMNSLKPEDTAVYYCNTTAYSPTPYDYWGQGTQVTVSS	low polyreactivity
QVHLVESGGGLVQAGGSLRLSCAASGRIFGDNAMGWYRQAPGKERELVAAITVNAGSTHYADSVKGRFTISRDNAKNTDYLQMNSLKPEDTAVYYCAKQTAPVTGVGPYYYWGQGTQVTVSS	low polyreactivity
QVQLEESGGGLVQAGGSLRLSCAASGRIFHVNAMGWYRPAPGKERELVAAISTSGGRTYYADSVKGRFTISRDNAKNTVYLQMNSLKPEDTAVYYCAKRWPLYVDPTRMDYWGQGTQVTVSS	high polyreactivity
QVQLVESGGGLVQAGGSLRLSCAASGTTFAGYAMGWYRPEPGKERELVSAISSGDSTNYADSVKGRFTISRDNAKNTVYLQMNSLKPEDTAVYYCNAEYRTRVFWWAASSYDYWGQGTQVTVSS	low polyreactivity
QFQLVESGGGLVQAGGSLSLSCAASGSTFVWYAMGWYRPAPGKERELVAAINFGGTTYYADSVKGRFTISRDNAKNTVYLQMNSLKPEDNAVYYCATEYDYGYWYPDGWVIFDYWVQGTQVTVSS	low polyreactivity
QVQLVESGGGLVQAGGSLRLSSAASGRIFSSYAMGWYRQAPGKERELVAAITSGGSTYYADSVKGRFTISRDNAKNTVYLQMNSLKPEDTAVYYCAAVYVQPPATAQHYYYWGQGTQVTVSS	high polyreactivity
QVQLVESGGGLFQAGGSLRLSCAASGSTFVWYAMGWYRQAPGKEREFVAANTNSGGSTYYADSVKGRFTISRDTAKNTVYLQMNILKPEDTAVYYCAAQSYYFSYHYDYWGQGTQVTVSS	low polyreactivity
QVQLVESRGGLVQAGGSLRLSCAASGLIFTVNAMGWYRQAPGKERELVAAISQSGGSTYYADSVKGRFTISRDNAKNTVYLQMNSLKPEDTAVYYCAAKSDPYRHDYWGQGTQVTVSS	low polyreactivity
QVQLVESGGGLVQAGGSLRLSCDCSGRIFKRYDMGWYRQAPGKERELVAAITGTGGSTYYADSVKGRFTISRDNAKNTVYLQMNSLKPEDTAVYYCAARLYNTYSGFAFGYWGQGTQVTVSS	high polyreactivity
QVQLVESGGGLVQAGGSLRLSCAASGGTFGYNAMGWYRQAPGKERELVAAISYTGDSTYYADSVKGRFTISRDNAKNTVDLQMNSLKPEDTAVYYCAASVYYYRYNYWGQATQVTVSS	low polyreactivity
QVQLVESGGGLVQAGGSLRLSCAASGYTFRYYAMGWYRQAPGKDRELVAVISSGGSTKYADSVKGRFTNSRDNAKNTVYLQMNSLKPEDTAVYYCAARYRSLYNYWGQGTQVTVSS	high polyreactivity
QVHLVESGGGLVQAGRSLRLSCAASGRIFSRYAMGGSRQAPGKERELVAVISRSGADTYYADSVKGRFTISRDNAKTTVYLQMNSLKPEDSAVYSCNAYSARRPHPMGYDYWGQCTQVTVSS	high polyreactivity
QVQLVESGGGLVQAGGSLRLSCAASGSLFGVNAMGWYRQAPGKERELVASISLSDDRTYYADSVKGRFTISRDIAKNTDYLQMNSLKPEDTAVYYCARRLLWYWDVDPSLAEYDYWGQGTQVTVSS	low polyreactivity
QVQLVESGGGLVQAGGSLRLICAASGRTFKYKAMGWSRQAPGKERELVAVISRGGSTYADSVKGRFTISRDNAKNTVYLQMNSLKAEDTAVYYCAVGRNSRQASERYGWYKYDYWGQGTQVTVSS	high polyreactivity

Sequence	polyreactivity (PSR sort gate)
QVQLVESGGGIVQAGGSLRLSCAASGLIFLDNAMGWYRQAPGKEREFVAAIDSGGSTNYADSVKGRFTISRDNAKNNVYLQMNSLKPEDTAVYYCAAVWIYAPWYYQESVEYYYWGQGTQVSVSS	low polyreactivity
QVQLVESGGGLVQAGGSLRLSCAASGSIFVSYAMGWYRQAPGKERELVAVISYSGVSTYYADSVKGRFTISRDNAKNTVYLQMYSLKPEDTAVYYCATRQYGTRHILKYNYWGQGTQVTVSS	low polyreactivity
QVQLVESGGGLVQAGGSLRLICAASGRIFGGNAMGWYRQAPGKERELVAPISRSGGSTYYADSVKVRFTISLDNAKNTVYLQMNSLIPEDTAVYYCAAVRRPGTGKYTEYDYWGQGTQVTVSS	high polyreactivity
QVQLVESGGGLVQAGGSLRLSCAASGSIFGLYAMGWSRQAPGKERELVASITGGGGTYYADSVKGRFTISRDNAKNTVYLQMNSLKPEDTAVYYCAAALYFGGDSYYYWGQGTQVTVSS	low polyreactivity
QVQLVESGGGLVQAGGSLRLSCAASGRTFRSNTKGGYRQAPGKERELVAAISWSGTRTYYADSVKGRFTISRDNAKNSVYLQMNSLKPEDTAVYYCNAVGFDQPRYYYWGQGTQVTVSS	high polyreactivity
QVQLVESGGGLVQAGGSLRLSCAASGYIFRFNAMGWYRQAPGKERELVAVNTSGARTYYADSVKGRFTISRDNAKNTVYLQMNSLKPEDTAVYYCNAGARRYLYDYWGQGTQVTVSS	low polyreactivity
QVQLVESGGALVQAGGSLRISCAASGLIITHYAMGWYRQAPGKEMELVAAISNGGSTNYADSEKGRFTISRDNAKNTVYLEMNSLKPEDTAVSFCNARPNKYYAYPATRGKYYYWGQATQVTVSS	low polyreactivity
QVQLVESGGGLVQAGGSLRLSCAASGSIFKVYAMGWYRQAPGKEREFVAAITSSDSNTNYADSVKGRFTISRDNAKNTDYLQMNSLKPEDTAVYYCNARIYTRRYVPHYGFNYWGQGTQVTVSS	low polyreactivity
QVQLVESGGGLVQAGGSLRLSCAASGRIFKYNAMGWYRQAPGKERELVAVISFSGGSTYYADSVKGRFTISRDNAKNTVYLQMNSLKPEDTAVYYCNVRQHYSRRLKKWQMDCWGQGTQVTVSS	high polyreactivity
QVQLVESAGGLVHARGSLRLSCAASGRIFERNAMGSYRQAPGKERELVARITSGGGTYYADSVKGRFTISRDNAKNTVYLQMNSLKPEDTAVYYCAVQYLYRKYRRYDYWGLGTQVTVSS	high polyreactivity
QVQLVESGGGLVQAGGSLRLSCAASGSILGYYAMGWYRQAPGKERELVAITSGDSTYYADSVKGRFTISRDNAKNTVYLQMNSLKPEDTAVYYCNARYSWKYDYWGQGTQVTVSS	high polyreactivity
QVQLVESGGGLVQAGGSLRLSCADSGFTFATYAMGWYRQAPGKKGRLVAAISNAGSTKYADSVKGRFTISRDNAKNTFYLQLNSLKPEDTAVYYCAASTLYASYYYLYYYWGQGTQVTVSS	high polyreactivity
QVQLVESGGGLVQAGCSLRLSCAASGRIFYYNTMGWYRQAPGKERELVAAINFSGDRTYYADSVKGRFTISRDNAKNTVYLQMNSLKPEDTAVYYCAAQGYWYGYQPGNFWGQGTQVTVSS	high polyreactivity
QVQLVESGGGLVQAGGSLRLSCAASGSTYTYALGWSRQAPGKERELVADITQSGGSTYYADSVKGRFTISRDNAKNTVYLQMNSLKTEDTAVYYCNAESRHVFEDEYWGQGTQVTGSS	low polyreactivity
QVQLVESGGGLVQAGGSLRLSCAASGSIFRKYTMGWYRQAPGKERELVAAISGTAGRTYYADSVKGRFTISRDNAKNTVYLQMNSLKPEDTAVYYCAARRFGGYGYNYWGQGTQVTVSS	high polyreactivity
QVQIVESGGGLDQAGGSLRLSCAATGSTFYWNAMGWYRQAPWKERELVAAISSGGSTYYADSVKGRFTISRDNAKNTVYVQMNSLKPEDTAVYYCAAEWYPYPWGYGYWGQGTQVTVSS	low polyreactivity
QVQLVESGGGLVQAGGSLRLSCAACGSTFPYNAMGWYRQAPGKERELVAAISGNGDSTFYADSVKGRFTISRDNAKNTVYLQMNSLKPEDTAVYYCAAEQYYGYYFYGYWGQGTQVTVSS	high polyreactivity
QVQLVESGGGLVKAGGSLRLSCAASGRIFGRYAMGWYRQAPGKEREFVAAISKRGGGTYYADSVKGRFTISRDNAKNTVYLQMNSLKPEDTAVYYCAVDNSPGFDDYDYWGQGTQVTVSS	high polyreactivity
QVQLVESGGGLVQAGGSLRLSCAASGFTFEYNAMGWYRQAPGKERELVAAISRSGGSTYYADSVKGRFTISRDNAKNTVYLQMNSLIPEDTAVYYCAAEPYPLPSYGYWGQGTQVTVSS	high polyreactivity
QVQLVESGGGLVQAGGSLRLSCAASGRIFPYKDMGWSRQAHGKEMELVAGISYSGGSTYYADSVKGRFTISRDNAKNTVYLQMNSLKPEDTAVYYCARDYSRHKGDYWGQGTQVTVSS	low polyreactivity
QVQLVESGGGLVQAGGSLRLSCAASGRIFDNYAMGWYRQAPGKERELVAAITYIDSGTYYADSVKGRFTISRDNAKNTVYLQMNSLKPEDTAVYYCAVRLNSDSKRKTQKYGYWGQGTQVTVSS	low polyreactivity
